Measured values as given in patent publication US20190032033A1 (HEPTARES THERAPEUTICS, published 2019).
Numbering of substitutions follows the chain as printed. Like-named read-outs stand apart in the source and are kept apart here.

Columns and labels:
[1] = target: T1, human adenosine A2A receptor (residues 1-308, N154A) (human, UniProt P29274 1-308); assay: cell-based or functional assay
[2] = target: T1, human adenosine A2A receptor (residues …); assay: cell-based or functional assay; remark: listed apart in the source
[3] = target: T2, C-terminally truncated human A2AR (residues 1-317, N154A) (human, UniProt P29274 1-317); assay: thermostability assay, DM-solubilised NECA-bound A2AR
T2 construct: range 1-317; C-terminal TEV site and His10 tag kept (used for immobilisation)
T2 sequence (P29274 1-317 N154A): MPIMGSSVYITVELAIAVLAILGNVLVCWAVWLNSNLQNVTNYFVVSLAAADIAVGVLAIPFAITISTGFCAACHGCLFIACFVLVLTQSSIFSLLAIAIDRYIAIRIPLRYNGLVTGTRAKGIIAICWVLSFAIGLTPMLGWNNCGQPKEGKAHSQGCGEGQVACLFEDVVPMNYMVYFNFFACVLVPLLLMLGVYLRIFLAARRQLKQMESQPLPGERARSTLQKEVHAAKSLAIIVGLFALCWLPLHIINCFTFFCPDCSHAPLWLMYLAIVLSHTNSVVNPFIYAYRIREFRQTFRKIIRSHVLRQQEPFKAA

[4] = target: T2, C-terminally truncated human A2AR …; assay: cell-based or functional assay
[5] = target: rat neurotensin receptor NTSR1 (residues 43-396) (rat, UniProt P20789 43-396); assay: cell-based or functional assay
rat neurotensin receptor NTSR1 (residues 43-396), sequence (P20789 43-396 limits assumed): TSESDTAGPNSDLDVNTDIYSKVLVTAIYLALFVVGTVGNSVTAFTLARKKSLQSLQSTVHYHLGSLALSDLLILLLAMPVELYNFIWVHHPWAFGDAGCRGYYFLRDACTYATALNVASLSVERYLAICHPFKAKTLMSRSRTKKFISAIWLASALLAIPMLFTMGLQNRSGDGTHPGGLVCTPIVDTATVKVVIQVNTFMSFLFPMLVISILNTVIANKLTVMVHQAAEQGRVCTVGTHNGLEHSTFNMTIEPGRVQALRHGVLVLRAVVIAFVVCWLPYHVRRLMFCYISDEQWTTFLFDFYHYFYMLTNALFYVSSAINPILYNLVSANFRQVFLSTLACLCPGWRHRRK

[6] = target: T3, human angiotensin II type 1 receptor AT1R (residues 1-359) (human, UniProt P30556 1-359); assay: cell-based or functional assay
T3 sequence (looked up): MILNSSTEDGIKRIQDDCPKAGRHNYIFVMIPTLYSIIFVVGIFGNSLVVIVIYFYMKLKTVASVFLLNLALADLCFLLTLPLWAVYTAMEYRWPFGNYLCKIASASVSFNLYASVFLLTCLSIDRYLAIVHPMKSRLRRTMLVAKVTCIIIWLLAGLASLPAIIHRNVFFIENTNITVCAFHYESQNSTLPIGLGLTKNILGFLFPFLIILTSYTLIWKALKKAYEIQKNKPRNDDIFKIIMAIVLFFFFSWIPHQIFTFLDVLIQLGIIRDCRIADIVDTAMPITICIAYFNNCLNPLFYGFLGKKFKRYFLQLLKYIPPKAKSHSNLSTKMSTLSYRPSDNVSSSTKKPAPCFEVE

[7] = target: T4, thioredoxin-A2AR fusion protein (human, UniProt P29274 6-316); assay: analytical SEC of purified NECA-bound A2AR mixed with mini-Gs/q (1:1.2 molar ratio) and Coomassie-stained SDS-PAGE of fractions 10-20
T4 construct: range 6-316; gp67 leader is cleavable; not shown: His10 tag, TEV protease cleavage site and thioredoxin
T4 sequence (P29274 other isoform, or with tags, fused parts or gaps): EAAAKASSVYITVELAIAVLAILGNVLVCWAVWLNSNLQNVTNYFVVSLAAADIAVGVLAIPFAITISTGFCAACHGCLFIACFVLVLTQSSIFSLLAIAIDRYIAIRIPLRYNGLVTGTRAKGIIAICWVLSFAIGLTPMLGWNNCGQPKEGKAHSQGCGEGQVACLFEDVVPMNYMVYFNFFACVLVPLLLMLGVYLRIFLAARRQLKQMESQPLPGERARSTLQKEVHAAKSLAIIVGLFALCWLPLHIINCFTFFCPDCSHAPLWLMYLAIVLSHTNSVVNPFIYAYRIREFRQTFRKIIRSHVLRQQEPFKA

[8] = target: β1AR-WT (wild type-like turkey β1 adrenergic receptor construct) (turkey, UniProt P07700 33-423, limits assumed); assay: cell-based or functional assay
β1AR-WT (wild type-like turkey β1 adrenergic receptor construct), sequence (P07700 other isoform, or with tags, fused parts or gaps limits assumed): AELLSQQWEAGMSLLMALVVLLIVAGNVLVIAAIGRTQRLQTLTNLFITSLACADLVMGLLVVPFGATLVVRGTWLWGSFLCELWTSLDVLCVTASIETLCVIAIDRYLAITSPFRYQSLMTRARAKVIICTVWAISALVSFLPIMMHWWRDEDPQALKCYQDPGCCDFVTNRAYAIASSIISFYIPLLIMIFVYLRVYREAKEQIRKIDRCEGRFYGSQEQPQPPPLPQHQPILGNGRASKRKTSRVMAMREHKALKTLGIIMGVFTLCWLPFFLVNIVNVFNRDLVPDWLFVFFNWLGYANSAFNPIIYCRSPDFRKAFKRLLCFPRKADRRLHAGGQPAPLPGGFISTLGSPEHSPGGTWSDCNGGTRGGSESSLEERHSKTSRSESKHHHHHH

[9] = target: T4, thioredoxin-A2AR fusion protein; assay: analytical SEC of purified NECA-bound A2AR mixed with mini-Gs/q (1:1.2 molar ratio) and Coomassie-stained SDS-PAGE of fractions 10-20; remark: listed apart in the source

T1 sequence (P29274 1-308 N154A): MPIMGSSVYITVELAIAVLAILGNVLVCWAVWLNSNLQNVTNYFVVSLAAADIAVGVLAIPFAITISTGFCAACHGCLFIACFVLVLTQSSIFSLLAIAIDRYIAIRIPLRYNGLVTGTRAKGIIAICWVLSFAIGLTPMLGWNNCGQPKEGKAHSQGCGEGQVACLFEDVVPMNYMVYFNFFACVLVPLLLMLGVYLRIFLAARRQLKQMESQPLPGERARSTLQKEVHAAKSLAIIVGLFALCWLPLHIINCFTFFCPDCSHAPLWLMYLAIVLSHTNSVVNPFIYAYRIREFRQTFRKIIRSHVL

B1: Mini-Gs414 (other)
chain: GIEKQLQKDKQVYRATHRLLLLGADNSGKSTIVKQMRIYHGGSGGSGGTSGIFETKFQVDKVNFHMFDVGGQRDERRKWIQCFNDVTAIIFVVDSSDYNRLQEALNDFKSIWNNRWLRTISVILFLNKQDLLAEKVLAGKSKIEDYFPEFARYTTPEDATPEPGEDPRVTRAKYFIRDEFLRISTASGDGRHYCYPHFTCAVDTENARRIFNDCRDIIQRMHLRQYELL
apparent Tm of DM-solubilised NECA-bound A2AR [1]: 32.9 °C | ΔTm of 3H-NECA-bound A2AR with mini-Gs414 against A2AR only, in decylmaltoside (DM) [2]: 6.8 °C | ΔTm of 3H-NECA-bound A2AR with mini-Gs414 against A2AR only, in dodecylmaltoside (DDM) [2]: 7.2 °C | ΔTm of 3H-NECA-bound A2AR with mini-Gs414 against A2AR only, in octylglucoside (OG) [2]: 13.4 °C

B2: mini-Gs/q70 (other)
chain: B1 chain with Y39L, R215K, Q219L, R220Q, H222N, Q225E, E227N, L229V
notes: also called mini-Gs/q chimera; Gs/q construct 70
binding result [3]: no binding (tested: 25 µM) | apparent Tm of DM-solubilised 3H-NECA-bound A2AR (alone 26.9 °C) [4]: 27.5 °C | apparent Tm of DDM-solubilised 3H-NTS-bound NTSR1 (alone 24.9 °C) [5]: 32.5 °C | apparent Tm of digitonin-solubilised 125I-AngII-bound AT1R (alone 22.6 °C) [6]: 30.7 °C | binding result [7]: no binding

B3: Mini Gs393 (other)
chain: B1 chain with Y39L
apparent Tm of β1AR-WT complex in decylmaltoside (receptor alone 20.4 °C) [8]: 30.5 °C | apparent Tm of β1AR-WT complex in dodecylmaltoside (receptor alone 25.9 °C) [8]: 34.1 °C | apparent Tm of β1AR-WT complex in nonylglucoside (uncoupled receptor did not survive) [8]: 24.7 °C | apparent Tm of β1AR-WT complex in octylglucoside (uncoupled receptor did not survive) [8]: 19.7 °C

B4: mini-Gs/q58 (other)
chain: MGHHHHHHENLYFQGIEKQLQKDKQVYRATHRLLLLGADNSGKSTIVKQMRILHGGSGGSGGTSGIFETKFQVDKVNFHMFDVGGQRDERRKWIQCFNDVTAIIFVVDSSDYNRLQEALNDFKSIWNNRWLRTISVILFLNKQDLLAEKVLAGKSKIEDYFPEFARYTTPEDATPEPGEDPRVTRAKYFIRDEFLRISTASGDGRHYCYPHFTCAVDTENARRIFAAVKDTILQLNLKEYNLV
binding result [9]: no binding | binding result [3]: no binding (tested: 25 µM) | apparent Tm of DM-solubilised 3H-NECA-bound A2AR (alone 26.9 °C) [4]: 26.9 °C | apparent Tm of DDM-solubilised 3H-NTS-bound NTSR1 (alone 24.9 °C) [5]: 25.1 °C
